This is an account of results in US20110212110A1 (INNATE PHARMA, published 2011).

In test [1] the target is T1, human TLR4 expressed in 293T cells (293T-TLR4 transfectants) (human, UniProt O00206 24-839).
T1 construct: also called Toll-Like Receptor 4
Nature of the test: IHC on paraffin-embedded cell pellet, ENVISION amplification. As to the method: 40F9.6 was tested on tonsil tissue with different detection systems, in order to identify the detection system yielding the strongest signal, with the lowest […]. The ENVISION System commercialized by DAKO A/S (Glostrup, Denmark) was selected. ENVISION is an amplification system based on an HRP-labeled polymer conjugated to secondary antibodies. Tissue sections were dewaxed and rehydrated before the antigen unmasking procedure in boiled citrate buffer (pH6). Endogenous peroxydases were blocked by a 3% solution of H₂O₂.
40F9.6 was tested in a series of paraffin-embedded samples.

Test [2] deals with T2, recombinant human His-tagged TLR3 extracellular domain protein (R&D systems, #1487-TR-050) (human, UniProt O15455 24-704).
T2 construct: Bought protein; also called recombinant human TLR3; rec TLR3; not shown: His tag
In words: ELISA, His-tagged TLR3 or TLR4 on Ni-NTA plates, hybridoma supernatant, goat anti-mouse F(ab) IgG-HRP. The source says:
Immune spleen cells were fused with X63.Ag8.653 immortalized B cells, and cultured in the presence of irradiated spleen cells. 40 culture plates were obtained and evaluated in a first screen for TLR3 binding using an ELISA developed for detection of binding to TLR3. Briefly, His-tagged recombinant TLR3 protein (R&D systems, #1487-TR-050) was coated on Ni-NTA 96-wells plates (Qiagen). […] Positive supernatants were selected and tested for lack of binding to TLR4. Briefly, His-tagged rec TLR4 protein (R&D systems, #3146-TR-050) were coated on Ni-NTA 96-wells plates (Qiagen). […] TLR4 was chosen as a 2nd screen in order to discriminate among wells selected in the 1st screen, where anti-His specific antibody from TLR3 specific antibody were used.
Cloning of hybridomas of potential interest. 42 potentially interesting hybridomas selected from the initial screening were cloned by limiting dilution techniques in 96-wells plates, and 304 subclones were tested in a series of screens as follows. […] All supernatants yielding a ratio above 10 for DO obtained in TLR3 ELISA to DO obtained in TLR4 ELISA were selected as specific for TLR3. Among them was supernatant from well F9 of plate 40 (40F9).

B1: monoclonal antibody 40F9 (clone 40F9.6) (antibody, mouse IgG1, V domains shown)
VH: QIQLVQSGPELKKPGETVKISCKASGYTFTNYGMNWVKQAPGKGLKWMGWINANTGEPTYAEEFKGRFAFSLETSDSTAYLQINNLKNEDTATYFCASDYDYWGQGTTLTVSS
VL: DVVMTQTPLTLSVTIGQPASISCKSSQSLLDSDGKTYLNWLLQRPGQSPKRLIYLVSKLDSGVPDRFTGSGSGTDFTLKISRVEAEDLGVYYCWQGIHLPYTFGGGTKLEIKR
notes: Mouse hybridoma antibody (Balb/c); also called supernatant from well F9 of plate 40
In the case of B1, the binding result in test [1] is “no binding (tested: 10 µg/ml)”. Further, the “ratio of DO obtained in TLR3 ELISA to DO obtained in TLR4 ELISA” value in test [2] came out at 10.
